The target in assay [1] is β-spectrin consisting of residues 1898–2083 (Spβ) (UniProt P11277). The assay is described as follows: ITC.
The target in another assay is spin labeled SpαΔ 49R1 (UniProt P02549). As to the kind of experiment: spin label EPR titration.
Assay [2] deals with β-spectrin (Homo sapiens) (UniProt P11277). As to the kind of experiment: ITC. Particulars: cited from earlier work.
For assay [3] the target is unchanged. The assay is described as follows: ITC. Particulars: cited from earlier work. The source holds these as a separate data set.
The target is the same in assay [4]. As to the kind of experiment: ITC. Particulars: cited from earlier work. The source holds these as a separate data set.
Assay [5] has the same target. The assay is described as follows: ITC. As to conditions: cited from earlier work. This is another data set of the same source.

Usually Kd stands for the concentration at which binding is half-saturated.

In assay [1], “spin labeled SpαΔ 53R1 (from UniProt P02549 1-368) (domain or fragment)” yielded a Kd of 3.3 µM. For “β-spectrin consisting of residues 1898–2083 (Spβ) (from UniProt P11277 1898-2083) (domain or fragment)”, in the assay with spin labeled SpαΔ 49R1, the Kd was determined as 98 µM. Turning to “spin labeled SpαΔ 48R1 (from UniProt P02549 1-368) (domain or fragment)”, the Kd in assay [1] is 3.1 µM. For α-spectrin (from UniProt P02549), the Kd in assay [2] is 0.4 µM; in assay [3], 14 µM; in assay [4], 0.5 µM; in assay [5], greater than 200 µM. For the substance “spin labeled SpαΔ 20R1 (from UniProt P02549 1-368) (domain or fragment)”, the equilibrium dissociation constant (Kd) in assay [1] came out at 1.5 µM.

Regarding “cysteine-less fragment of the first 368 residues of α-spectrin (from UniProt P02549 1-368) (domain or fragment)”, the Kd in assay [1] worked out at 0.9 µM. Turning to “spin labeled SpαΔ 45R1 (from UniProt P02549 1-368) (domain or fragment)”, the Kd in assay [1] was found to be 2.9 µM. With “spin labeled SpαΔ 46R1 (from UniProt P02549 1-368) (domain or fragment)”, the dissociation constant (Kd) in assay [1] was 5.9 µM.

With “spin labeled SpαΔ 49R1 (from UniProt P02549 1-368) (domain or fragment)”, the Kd in assay [1] was greater than 30 µM.

The values above are taken from publication PMC2659877.
